The record followed here is the nanobody polyreactivity screen of Harvey et al. (2022).

The data set is described as follows: yeast display, Sf9 membrane polyspecificity reagent, FACS + sequencing; frameworks hold sequencing errors. The method, boiled down: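 Using colony PCR, genes from sorted yeast display clones were amplified, then sequenced on MiSeq at 2 × 250 and filtered by CDR length. The clones had been stained with 10% biotinylated, detergent-solubilized Sf9 membrane reagent for 1 hour at 4 °C and sorted by FACS into low and high (top ~1%) gates on anti-HA and streptavidin fluorescence. Polyreactivity labels come from the gate of origin.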
As to “KVQLVESGGGLFQAGGSLGLSCAPSGNTFYHYAMGWYRQSPGKERELVAGIRYNGGSTYYADSVKGRFTISRDNAKNTVYLHMKSLKPEDTAVYYCATIGYTGYAYRYGYWGQGTQVTVSS”, the “polyreactivity (PSR sort gate)” value is reported as “high polyreactivity”. In the case of “KVQLVESGGGLVQAGGRLRISCAASGRICYSNVMGWSRQAPGKERELVAAIFSGGSTYYADSVKGRFTISRDNAKNTVYLQMNSLKPEDTAVYDCAADYYYPFDYWGQGTQVTVSS”, the “polyreactivity (PSR sort gate)” value is reported as “low polyreactivity”. The entry for “KVQLVESGGGLVQAGGSLRLSCAASGFIFYYYAMGGYRQAPGKERELVAVLTESGSSTYYADSVKGRFTISRDNAKNSVYLQMNRLKPEDTAVYYCNADFWPYTGKYDYWGQGTQVTVSS” is “low polyreactivity”; for “KVQLVESGGGLVQAGGSLRLSCAASGFIFYYYAMGWYRQAPGKERELVAAISTDGGSTYYADSVKGRFTISRDNAKNTVYLQMNSLKPEDTAVYYCNAPYYGWGYWPLEYIRYEYWGQGTQVTVSS” it is “low polyreactivity”. The entry for “KVQLVESGGGLVQAGGSLRLSCAASGFTFYIYAMGWYRPAPGKEREVVAAISARGGSTYYADSVKGRFTISRDNAKTTGYLQMNSLKPEDTAVDYCNALYIYAEIYGRGFWGQGTQVTVSS” is “high polyreactivity”; for “KVQLVESGGGLVQAGGSLRLSCAASGITFYDYDMGWYRQEHGKERELVSAITWNGGSTYYADSVKGRFTISRDNAKNTVYLQMNSLKPVDTAVYYCAAESYYIYYYWGQGTQVTVSS” it is “high polyreactivity”; for “KVQLVESGGGLVQAGGSLRLSCAASGNPLLFNALGWYRQAPGKERELVARITSSGASTYYADSVKGRFTISRDNAKNTLYLQMNSLKAEDTAVYYCAARTRTRRGYTSGDYWGQGSQVTVSS” it is “high polyreactivity”. The entry for “KVQLVESGGGLVQAGGSLRLSCAASGRIFRYYAMGWSRQAPGKERELVAAISRGGGSTYYADSVKGRFTISRDNAKNTVYLQMNSLKPEDTAVYYCANSVGRGPIGYDYWGQGTQVTVSS” is “high polyreactivity”; for “KVQLVESGGGLVQAGGSLRLSCAASGRTFVYYAMGWYRQAPGKERELVAAISSGGSTNYADSVKGRFTISRDNAKNTVYLQMNSLKPEDTAVYYCNADWGFPDVKETGVRFDYWGQGTQVTVSS” it is “low polyreactivity”. Take “KVQLVESGGGLVQAGGSLRLSCAASGSIFHNYDMGWYRQAPGKERELVADISRGGDTNYADSVKGRFTISRDNAKNTVYLEMKSLKPEDTAVYYCNATYWILDFPWWRETFDYWGQGTQVTVSS”: the “polyreactivity (PSR sort gate)” value is “low polyreactivity”.

For the sequence “KVQLVESGGGLVQAGGSLRLSCAASGSIFWDNVMGWYRQAPGNERELVADIDSWDGGSTYYADSVKGRFTISRDNAKNTVYLQMNSLKPEDTAVYYCNSDVLWWRGGDDFWGKGTQVTVSS”, the “polyreactivity (PSR sort gate)” value is “low polyreactivity”. Take “KVQLVESGGGLVQAGGSLRLSCAASGSIFYVNAMGWYRQAPGKERELVARITLSGTSTYYADSVKGRLTISRDNAKNTVYLQMNSLKPEDTAVYYCAATYWSWISLRFYWGQGTQVTVSS”: the “polyreactivity (PSR sort gate)” value is recorded as “low polyreactivity”. As to “KVQLVESGGGLVQAGGSLRLSCAASGSTFQYYAMGWYRQAPGTERELVAAITSGGSTNYADSVKGRFTISRDNAKNTVYLQMNSLKPEDTAVYYCNADSSGWFPFDYWGQGTQVTVSS”, the “polyreactivity (PSR sort gate)” value is “low polyreactivity”.

For the sequence “KVQLVESGGGLVQAGGSLRLSCAPSGSIFPLNARGWYSQAPGKERELVAAISESGGRTYYADSVKGRFTISRDNAKNTVYLQMNSLNPADTAVYHCATVRLARKSAPYDYWGQGTQVTVSS”, the “polyreactivity (PSR sort gate)” value is “high polyreactivity”. As to “KVQLVESGGGLVQAGGSLRLSSADSGRIYVGYAIVWYRQEPGKEMEMVAGISRSGDSTYYADSVKGRFTISRDNAKNTVYLQMNSLKPEDTAVYYCAARINYWGYYYWGQGSQVTVSS”, the “polyreactivity (PSR sort gate)” value is listed as “high polyreactivity”.

Turning to “KVQVVESGGCLVQAGGSLRLSCAASGFSFGGYAMGCYRQAPGKDRELVAAINYRGGSTNYADSVKGRFTISRDNAKNTVYFQMNSLKPEDTAVYYCAASYFYWRANRGPRYYWGQGTQVTVSS”, the “polyreactivity (PSR sort gate)” value is on record as “high polyreactivity”. “KVQVVESGGGFVQAGGSLRLSCAASGSTFVINAMGCYRQAPGKERELVAAITWGGGRTYYADSVKGRFTISRDNEKNTVYFQMNSLKPEDTAVYYCAAVGSGWKGDYWGQGTQVNVSS”: the “polyreactivity (PSR sort gate)” value was “low polyreactivity”. The entry for “KVQVVESGGGVVQAGGTLRLSCAASGSIAGNAMGWYRQAPGKERELVAAITFRGSGTYYADSVKGRFTISRDNAKNTVYLQINSLKPEDTAVYYCNAYRRGLSGYGYWGQGTQVTVSS” is “high polyreactivity”; for “LVHHVESGGGLVQAGRSLRLTCAASGGTFFSNAMGWYRQSPGKERELVAGITSGGRTYYADAVKGRFTISRDNAMNTVYLQMNSMKPEDTAVFYCAAERFTRKYNYWGQGTQVTLSS” it is “high polyreactivity”. The entry for “LVQLQESGGGLVQAGGSLRLSCAASGTISPGGYMAWYRQAPCTERELVASINVGGSTNYADSVKGRFTISRDNAKNTVYLQMNSLKPEDNALYYCAVWGRNRLQLSYWGQGTQVTVIS” is “low polyreactivity”; for “LVQLVESGGGIVQAGGSLRLSCAASGLISQRNVMGWYRQAPGKERELVARISTSSSGTYYADSVKGRFTISRDNAKNTVYLQMNSLKPEDTAVYYCAKRWSPYYRLYSWGQGTQVTVSS” it is “high polyreactivity”; for “LVQLVESGGGIVQAGGSLRLTCAASGRTFWGYSMGWYRQSPGKERELVAAISWTGGRTYYADSVKGRFTISRDYAKNSVNLQMNSLKPEDTAVYDCARPYTTYDGRYHYWGQGTQVTVSS” it is “high polyreactivity”. The same measure for “LVQLVESGGGLGQAGGSLRLSCAASGFTFTIYAMGWYRQAPGKERELVAAISSSGYSTYYADSVKGRFTISRDNAKNTVYFQMISLKPEDTAVYYCAARGYYRSHLGFLYDYWGQGTQVTVSS”: “high polyreactivity”. With “LVQLVESGGGLLQAGGSPRLSCAASGFNFRGYAMGWYRQAPRKERELVAAINSGGSTNYADSVKGRFTISRDNAKNTVYLQMNSLNPEDTAVSYCAARVKTSYRYLRTYNYWGQGTQVTVSS”, the “polyreactivity (PSR sort gate)” value is “high polyreactivity”. For the sequence “LVQLVESGGGLVEAGGSLRLSWAASGIIFYYYAMGWYRQAPGKEREFVAGIRWSSGSTYYADSVKGRFTISRDNAKNTVYLQMNSLKPEDTAVYYCAAAYLSWYGGYYYWGQGTQVTVSS”, the “polyreactivity (PSR sort gate)” value is given as “low polyreactivity”. Turning to “LVQLVESGGGLVQAGGSLRLSCAASGFIFAIYDMGWYRQAPGKERELVAAITSSSSTYADSVKGRFTISRDNAKNTVYLQMNSLKPEDTAVYYCAADTYSYRYSNDYWGQGTQVTVSS”, the “polyreactivity (PSR sort gate)” value is reported as “low polyreactivity”. On to “LVQLVESGGGLVQAGGSLRLSCAASGGTIVYYTMGWYRHAPGKERELVATIDNSDGSTYYADSVKGRFTISRDNAKNTVDLQMNSLKPEDTPVYYCSKSLPHSTSRDYWGQGTQLTVSS”, for which the “polyreactivity (PSR sort gate)” value was “low polyreactivity”. The entry for “LVQLVESGGGLVQAGGSLRLSCAASGNIFYWYAMGWYRQAPRKEREFVAAITRSGGSTSYADSVKGRFTISRDNAKNTVYLQMNSLKPEDTAVYYCNATHWVHFQEFYSWGQGTQVTVSS” is “low polyreactivity”; for “LVQLVESGGGLVQAGGSLRLSCAASGSTFFYAMGWYRQAPGKERELVAGIVWSGGSTYYADSVKGRFTISRDNAKNTVYLQMNSLKPEDTAVYYCPAEYTDDYWGQGTQVTVSS” it is “low polyreactivity”; for “LVQLVESGGGLVQAGGSLRLSGAASGSPFRQNAMGWYRQAPGKERELVAAITWRGDNTYYADSVKGRFTISRDNAKKPVYFQRNSLKPDDTAVDYCAARWSYRLYWGYGYWGQGTEVTVSS” it is “low polyreactivity”. Turning to “LVQVVESGGGLVQAGGSLGLSCAASGRIFRDYAMGWYRPATGKERELVAAISWSTVHTYYADSVKGRFTISRDNAKNTVYLQMNCLKPEDTAVYYCAVDRPGLTYYDYDYWGQGTQVTVSS”, the “polyreactivity (PSR sort gate)” value is reported as “low polyreactivity”.

“PVQLEESGGGLVQAGGSLRLSCPASGTSAYYARGWYRQAPGKERALVAGISIGGSTNYADSVKGRFTITRDNAKNTVYVQMTSLKPEDTAVAYCSVDGYVAFSPDRNNYWGQGTQVTVSS”: the “polyreactivity (PSR sort gate)” value was “low polyreactivity”.

Turning to “PVQLQESGGGLVQAGGSLRLSCAARGNIFDADIMGWYSQAPGKERELVACIADGGSTNYAHSVKGRFTISRDNAKNTVYLHMNSVKPEDTAVYYCAAIAYPDIPTCFDYYSDYFFRGQGTQVTVSS”, the “polyreactivity (PSR sort gate)” value is on record as “low polyreactivity”. Take “PVQLVDSGGGLVQAGGSLRLSCAASGRTFGWYAMGWYRQAPGKERELVAAIRGVRTHYADSVKGRFTISRDNAKNTVYLQMNSLKPEDTAVYYCAARYYRWTKSEYGYWGQGTQVTVSS”: the “polyreactivity (PSR sort gate)” value is given as “high polyreactivity”. The same measure for “PVQLVESGGGIVQAGGSLRLSCAASGTSFEYNAMGWSRPAPGKERELVAAITWSVGSTYYADSVKGRFTISRDNAKNTVYLQMNSLKPEDTAVYYCAAFDTASVYEFDYWGQGTQVTVSS”: “low polyreactivity”; for “PVQLVESGGGLVHAGGRHRLSSAASGSIFNYYPMGWYRKAPGTERELVATISAGGSTNYADSVTGRFTISRDNAKNTVYLHKNRLKPEDTAVYYCNRARYYLTSYTYLTSYDYWGQGTQGTVSS”: “high polyreactivity”; for “PVQLVESGGGLVQAGGSLRLSCAASGFTFSYNDMGWYRQAPGKERELVAAITSTGGTYYADSVKGRFTISRDNAKNTVYLQMNSLKPEDTAVYYCAADRIGGPGSYLYDYWGQGTQVTVSS”: “low polyreactivity”. The entry for “PVQLVESGGGLVQAGGSLRLSCAASGITIISYAMVWYRQAPGKERELVAAITKSGGRTYYADSVKGRFTISRDNAKNTVYLQMNSLKPEDTAVYYCAAYHLRDNRIGGGYWGQGTQVTVSS” is “high polyreactivity”; for “PVQLVESGGGLVQAGGSLRLSCAASGNIFGVYPMGWYRQAPGKERELVAVITSSGSTYADSVKGRFTISRDNAKNTVFLQMNSLKPEDTAVYYCNTDGYYHPHGFDYYRYYYWGQGTQVTVSS” it is “high polyreactivity”. The same measure for “PVQLVESGGGLVQAGGSLRLSCAASGRIFAQYAMGWYRQAPGNERELVADISSGVRTYAASVKGRFTISRDNAKNTVSFQMNSLKPEDTAVYYFNAYYIIFTRNDYWGQGTQVTVSS”: “low polyreactivity”.

Turning to “PVQLVESGGGLVQAGGSLRLSCAASGSIFGVNDMGWYIQGAGKERELVAGINQGGGSTYYADSVKGRFTISRDIAKNTVYLQMNSLKPEDTAVYYCAAVRYVLRSPARYGYWGQGTQVTVSS”, the “polyreactivity (PSR sort gate)” value is “low polyreactivity”.
